Target: T1, HER1 extracellular domain (human, UniProt P00533 25-645)
T1 construct: extracellular domain; also called HER1 coated chip surface
Assay: SPR (Biacore T100), HER1 extracellular domain amine-coupled to CM5, antibody injected at 3.125-50 nM, 1:1 Langmuir model

Kd: 1 nM
B1: HER1-binding IgG1 antibody GA201 (antibody, V domains shown)
VH: QVQLVQSGAEVKKPGSSVKVSCKASGFTFTDYKIHWVRQAPGQGLEWMGYFNPNSGYSTYAQKFQGRVTITADKSTSTAYMELSSLRSEDTAVYYCARLSPGGYYVMDAWGQGTTVTVSS
VL: DIQMTQSPSSLSASVGDRVTITCRASQGINNYLNWYQQKPGKAPKRLIYNTNNLQTGVPSRFSGSGSGTEFTLTISSLQPEDFATYYCLQHNSFPTFGQGTKLEIKR
notes: IgG1, produced in 293-F cells; also called GA201 parental unmasked antibody; anti HER1 antibody GA201

Source: patent publication EP3433280B1 (F. Hoffmann-La Roche AG, dated 2023)
